US20190134153A1, “IMMUNOMODULATORY EFFECT OF INHALED KINASE INHIBITOR PEPTIDES IN LUNG” (MOERAE MATRIX, INC., priority 2017, published 2019)

Assays:
Assay in all cases: Kinase Profiling Assay
Type in all cases: biochemical
Details in all cases: 100 μM
DCAMKL2(h) = molecular target: T1, DCAMKL2(h) (Homo sapiens, UniProt Q8N568)
T1 sequence (Q8N568 1-766): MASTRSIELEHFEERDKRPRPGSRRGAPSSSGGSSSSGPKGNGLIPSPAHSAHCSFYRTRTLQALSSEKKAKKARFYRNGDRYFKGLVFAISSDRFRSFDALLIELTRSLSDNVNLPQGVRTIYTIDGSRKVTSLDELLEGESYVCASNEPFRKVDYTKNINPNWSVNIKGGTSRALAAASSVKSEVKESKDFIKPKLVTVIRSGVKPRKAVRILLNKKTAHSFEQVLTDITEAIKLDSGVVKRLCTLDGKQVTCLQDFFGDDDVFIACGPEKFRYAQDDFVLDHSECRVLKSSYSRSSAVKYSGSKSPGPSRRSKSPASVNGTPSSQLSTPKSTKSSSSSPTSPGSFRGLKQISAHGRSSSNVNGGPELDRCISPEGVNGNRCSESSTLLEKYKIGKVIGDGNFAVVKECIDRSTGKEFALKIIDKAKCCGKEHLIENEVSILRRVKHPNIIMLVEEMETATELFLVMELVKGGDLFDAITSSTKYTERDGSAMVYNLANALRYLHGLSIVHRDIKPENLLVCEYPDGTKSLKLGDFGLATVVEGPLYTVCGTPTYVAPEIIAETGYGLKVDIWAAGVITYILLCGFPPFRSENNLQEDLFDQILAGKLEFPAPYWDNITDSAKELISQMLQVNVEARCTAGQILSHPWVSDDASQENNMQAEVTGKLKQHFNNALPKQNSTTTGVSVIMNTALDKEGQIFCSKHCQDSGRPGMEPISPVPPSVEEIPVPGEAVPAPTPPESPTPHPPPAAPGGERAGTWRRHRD

EphA3(h) = molecular target: T2, EphA3(h) (Homo sapiens, UniProt P29320)
T2 sequence (P29320 21-983): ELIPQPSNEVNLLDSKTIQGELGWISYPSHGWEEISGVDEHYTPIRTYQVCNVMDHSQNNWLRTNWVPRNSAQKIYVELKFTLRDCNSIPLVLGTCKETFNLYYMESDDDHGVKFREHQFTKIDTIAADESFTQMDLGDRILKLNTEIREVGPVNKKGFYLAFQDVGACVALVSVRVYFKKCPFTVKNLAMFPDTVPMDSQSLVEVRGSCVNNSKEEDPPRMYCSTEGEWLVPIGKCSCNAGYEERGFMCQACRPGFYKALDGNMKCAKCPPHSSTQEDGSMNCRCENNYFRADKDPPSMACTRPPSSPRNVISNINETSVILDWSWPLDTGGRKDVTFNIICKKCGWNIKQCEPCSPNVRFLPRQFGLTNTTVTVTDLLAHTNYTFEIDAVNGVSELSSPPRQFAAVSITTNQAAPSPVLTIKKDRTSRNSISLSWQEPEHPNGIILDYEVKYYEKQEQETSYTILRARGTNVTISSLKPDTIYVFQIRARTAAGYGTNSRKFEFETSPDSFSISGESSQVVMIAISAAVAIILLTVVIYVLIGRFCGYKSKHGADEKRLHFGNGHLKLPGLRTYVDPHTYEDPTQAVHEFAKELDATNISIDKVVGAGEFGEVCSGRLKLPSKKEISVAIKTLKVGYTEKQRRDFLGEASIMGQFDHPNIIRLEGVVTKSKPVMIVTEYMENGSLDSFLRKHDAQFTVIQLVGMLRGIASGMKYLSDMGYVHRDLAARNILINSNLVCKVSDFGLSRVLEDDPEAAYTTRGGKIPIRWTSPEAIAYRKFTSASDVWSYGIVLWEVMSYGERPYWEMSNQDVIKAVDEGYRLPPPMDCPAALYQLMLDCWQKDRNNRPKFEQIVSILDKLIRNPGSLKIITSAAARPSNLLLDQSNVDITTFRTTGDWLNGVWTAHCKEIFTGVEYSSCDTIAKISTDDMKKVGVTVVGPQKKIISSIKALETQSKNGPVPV

GRK6(h) = GRK6(h) (Homo sapiens, UniProt P43250)
MST2(h) = molecular target: T3, MST2(h) (Homo sapiens, UniProt Q13188)
T3 sequence (Q13188 1-491): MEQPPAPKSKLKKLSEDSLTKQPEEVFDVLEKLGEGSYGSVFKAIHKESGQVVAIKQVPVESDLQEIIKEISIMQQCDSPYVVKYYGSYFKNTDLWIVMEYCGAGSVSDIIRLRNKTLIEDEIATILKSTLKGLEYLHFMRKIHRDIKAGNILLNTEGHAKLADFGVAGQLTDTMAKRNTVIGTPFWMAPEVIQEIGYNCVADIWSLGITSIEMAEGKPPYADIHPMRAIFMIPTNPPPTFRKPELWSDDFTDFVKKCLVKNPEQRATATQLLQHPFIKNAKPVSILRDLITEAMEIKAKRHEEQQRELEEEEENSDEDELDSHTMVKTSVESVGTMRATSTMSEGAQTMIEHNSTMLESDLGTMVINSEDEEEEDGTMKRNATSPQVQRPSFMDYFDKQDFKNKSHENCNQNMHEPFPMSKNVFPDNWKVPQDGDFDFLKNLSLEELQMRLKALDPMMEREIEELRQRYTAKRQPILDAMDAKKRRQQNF

PKCδ(h) = PKCδ(h) (Homo sapiens, UniProt Q05655)
SGK3(h) = molecular target: T4, SGK3(h) (Homo sapiens, UniProt Q96BR1)
T4 sequence (Q96BR1 1-496): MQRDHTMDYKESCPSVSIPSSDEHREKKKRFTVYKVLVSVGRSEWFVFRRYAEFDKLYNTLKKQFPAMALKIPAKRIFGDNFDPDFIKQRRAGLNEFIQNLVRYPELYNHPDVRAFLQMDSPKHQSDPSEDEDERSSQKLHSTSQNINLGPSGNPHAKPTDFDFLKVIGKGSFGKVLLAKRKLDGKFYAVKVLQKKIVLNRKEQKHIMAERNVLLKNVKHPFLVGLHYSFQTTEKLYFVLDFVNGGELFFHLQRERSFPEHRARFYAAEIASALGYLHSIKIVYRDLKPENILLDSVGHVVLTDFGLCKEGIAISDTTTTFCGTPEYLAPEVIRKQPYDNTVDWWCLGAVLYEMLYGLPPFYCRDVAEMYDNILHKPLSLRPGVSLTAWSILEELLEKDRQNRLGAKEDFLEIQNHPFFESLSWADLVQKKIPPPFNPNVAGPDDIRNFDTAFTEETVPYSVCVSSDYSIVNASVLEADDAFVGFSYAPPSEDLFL

Chain of GRK6(h) (P43250 whole entry): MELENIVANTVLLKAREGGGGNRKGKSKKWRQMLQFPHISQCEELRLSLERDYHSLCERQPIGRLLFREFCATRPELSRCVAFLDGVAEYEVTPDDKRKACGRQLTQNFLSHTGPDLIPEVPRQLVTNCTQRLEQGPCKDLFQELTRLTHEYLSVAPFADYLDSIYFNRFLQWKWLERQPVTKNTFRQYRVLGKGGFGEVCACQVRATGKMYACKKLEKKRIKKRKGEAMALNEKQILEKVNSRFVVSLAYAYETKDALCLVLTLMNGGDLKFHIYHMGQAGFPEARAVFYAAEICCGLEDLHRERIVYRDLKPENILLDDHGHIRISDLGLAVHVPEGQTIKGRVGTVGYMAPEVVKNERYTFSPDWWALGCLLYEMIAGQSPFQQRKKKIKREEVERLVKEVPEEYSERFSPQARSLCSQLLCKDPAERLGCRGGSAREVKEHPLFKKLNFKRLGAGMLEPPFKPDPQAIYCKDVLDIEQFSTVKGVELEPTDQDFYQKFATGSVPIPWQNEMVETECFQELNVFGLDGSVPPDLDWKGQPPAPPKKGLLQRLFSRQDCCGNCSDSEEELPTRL
Chain of PKCδ(h) (Q05655 whole entry): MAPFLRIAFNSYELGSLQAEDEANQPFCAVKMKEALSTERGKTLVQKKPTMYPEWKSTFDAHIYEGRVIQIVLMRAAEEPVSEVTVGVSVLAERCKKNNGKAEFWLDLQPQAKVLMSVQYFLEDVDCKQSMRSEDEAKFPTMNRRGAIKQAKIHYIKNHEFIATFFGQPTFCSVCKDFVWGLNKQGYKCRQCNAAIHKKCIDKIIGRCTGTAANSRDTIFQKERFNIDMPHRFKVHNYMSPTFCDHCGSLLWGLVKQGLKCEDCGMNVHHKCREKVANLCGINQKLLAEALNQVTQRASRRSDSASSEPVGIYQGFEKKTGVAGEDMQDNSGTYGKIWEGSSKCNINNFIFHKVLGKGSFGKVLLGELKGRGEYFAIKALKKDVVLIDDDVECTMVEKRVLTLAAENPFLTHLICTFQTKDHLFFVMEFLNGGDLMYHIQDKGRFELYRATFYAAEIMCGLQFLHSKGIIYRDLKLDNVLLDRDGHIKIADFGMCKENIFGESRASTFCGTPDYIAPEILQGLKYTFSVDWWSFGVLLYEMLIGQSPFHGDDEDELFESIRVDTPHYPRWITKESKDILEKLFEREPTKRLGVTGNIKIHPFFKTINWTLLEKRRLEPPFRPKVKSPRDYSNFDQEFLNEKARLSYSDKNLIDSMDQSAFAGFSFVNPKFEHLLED

Row | Sequence | % activity (DCAMKL2(h)) [%] | % activity (EphA3(h)) [%] | % activity (GRK6(h)) [%] | % activity (MST2(h)) [%] | % activity (PKCδ(h)) [%] | % activity (SGK3(h)) [%]
1 | FAKLAARLYRKALARQLGVAA [MMI-0300] | 81 | 6 | 147 | 19 | 101 | 10
2 | KAFAKLAARLYRKALARQLGVAA [MMI-0400] | 70 | 12 | 141 | 11 | 90 | 8
3 | YARAAARQARAKALNRQLGVA [MMI-0200] | 131 | – | 132 | – | 101 | 58
4 | HRRIKAWLKKIKALARQLGVAA [MMI-0500] | 56 | 33 | 174 | 2 | 61 | −3
